Values joined by “and” are separate entries in the source; they are usually repeats but may differ in a detail not shown here. Equal values may be shown once.
Target: the molecule itself

B1: RXRα (protein of Supplementary Figure S1f; tetramer and dimer) (natural protein)
chain: MDTKHFLPLDFSTQVNSSLTSPTGRGSMAAPSLHPSLGPGIGSPGQLHSPISTLSSPINGMGPPFSVISSPMGPHSMSVPTTPTLGFSTGSPQLSSPMNPVSSSEDIKPPLGLNGVLKVPAHPSGNMASFTKHICAICGDRSSGKHYGVYSCEGCKGFFKRTVRKDLTYTCRDNKDCLIDKRQRNRCQYCRYQKCLAMGMKREAVQEERQRGKDRNENEVESTSSANEDMPVERILEAELAVEPKTETYVEANMGLNPSSPNDPVTNICQAADKQLFTLVEWAKRIPHFSELPLDDQVILLRAGWNELLIASFSHRSIAVKDGILLATGLHVHRNSAHSAGVGAIFDRVLTELVSKMRDMQMDKTELGCLRAIVLFNPDSKGLSNPAEVEALREKVYASLEAYCKHKYPEQPGRFAKLLLRLPALRSIGLKCLEHLFFFKLIGDTPIDTFLMEMLEAPHQMT
stoichiometry N: 4 and 2

From publication PMC5735301 (Oncogene, 2017)
